Test results taken from patent publication CN112794898A (YIKANG BIOLOGY SUZHOU CO LTD, dated 2021).

Target: SARS-CoV2 S蛋白受体结合域(RBD) (SARS-CoV2, UniProt P0DTC2 319-541)

B1: 单克隆抗体YK-CoV2-02的Fab (Fab, V domains shown)
VH: QVQLVESGGGLIQPGGSLRLSCAVSGFTVSSNYMSWVRQAPGKGLEWVSVIYPGGSTFYADSVKGRFTISRDNDNSKNTLYLQMNSLRAEDTAVYYCARDWVRGSNWGQGTLVTVSS
VL: EIVLTQSPATLSLSPGERATLSCRASQSVSNYLAWYQQKPGQAPRLLIYDASNRATGIPARFSGSGSGTDFTLTISSLEPEDFAVYYCQERSNWPSGTFGPGTKVDIK
- Kd: 4.03 nM
